For experiment [1], the target named is T1, revertant virus (AD169 CMV with the pentameric gH complex restored). The experiment in a line: cell-based or functional assay.
For experiment [2], the target named is T1, revertant virus (AD169 CMV with the …). Description: antibody-titration EIA, coated revertant virions.
The next experiment concerns the target T2, recombinant gB (human cytomegalovirus (CMV), UniProt P06473 32-700).
T2 construct: also called gB protein; recombinant gB antigen
Description: EIA on recombinant gB.

For orientation: EC50 means the concentration at which the effect is half-maximal. Low readings indicate a more potent agent, high ones a less potent agent.

T2 sequence (P06473 32-700 limits assumed): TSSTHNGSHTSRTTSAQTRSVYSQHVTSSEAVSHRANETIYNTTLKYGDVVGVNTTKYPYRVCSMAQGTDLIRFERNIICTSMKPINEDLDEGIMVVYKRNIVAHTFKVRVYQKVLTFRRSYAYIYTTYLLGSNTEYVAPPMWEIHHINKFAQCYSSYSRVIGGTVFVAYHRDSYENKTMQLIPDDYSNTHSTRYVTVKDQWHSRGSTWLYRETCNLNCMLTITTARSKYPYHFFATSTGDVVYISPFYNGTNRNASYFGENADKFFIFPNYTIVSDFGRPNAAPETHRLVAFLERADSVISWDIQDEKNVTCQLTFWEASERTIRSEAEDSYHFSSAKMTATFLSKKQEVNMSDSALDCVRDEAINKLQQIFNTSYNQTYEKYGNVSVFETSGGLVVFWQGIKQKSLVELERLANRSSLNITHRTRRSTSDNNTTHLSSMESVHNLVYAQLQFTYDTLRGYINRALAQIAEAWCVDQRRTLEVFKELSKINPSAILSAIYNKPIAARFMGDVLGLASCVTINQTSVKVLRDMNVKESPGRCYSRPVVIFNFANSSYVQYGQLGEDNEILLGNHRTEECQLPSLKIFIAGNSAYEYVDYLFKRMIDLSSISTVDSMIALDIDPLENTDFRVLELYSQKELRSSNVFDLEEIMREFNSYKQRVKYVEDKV

B1: 240.8 (antibody, V domains shown)
VH: QSVEESGGGLVTPGGTLTLTCGVSGIDLSANEMGWVRQAPGEGLEWIGTLSYHNIPHYATWAKGRFTISKTSTTVDLKITSPTSADTATYFCGRVFTSTSFDPWGPGTLVTISS
VL: ELVMTHPPASVSAPVGGTVTIKCQASHNIGSRLPWYQQEPGQPPKLLIYRTSTLASGVPSRFTGSGYGTEFTLTISDLECADAATYYCQDHDDISHAFGGGTNVEIK
notes: rabbit hybridoma mAb; also called clone 240.8
Consider B1, for which, in experiment [1], the “Neutralization in ARPE-19 cells EC50” value was 0.79 µg/mL and the “Neutralization in MRC-5 cells EC50” value worked out at 100 µg/mL. Also, the EC50 in experiment [2] was 2.6 µg/mL.

B2: 124.4 (antibody, V domains shown)
VH: QSLEESGGRLVTPGTPLTLTCTVSGFSLSSCNMGWVRQAPGEGLEWIGYIAASGDAFYASWAKGRFTISKTSSTTVDLRITSPTTEDTAAYFCARGSYAAYNAWDLWGPGTLVTVSS
VL: ELDMTQTASPVSAAVGGTVTINCQSSQSVYNKNYLSWYQQKPGQPPKLLIYGASTLPSGVPSRFKGSGSGTQFTLTISEVQCDDAATYYCQGYYSGYIYAFGGGTEVVVK
notes: rabbit hybridoma mAb; also called clone 124.4
For the molecule B2, in experiment [1], the “Neutralization in ARPE-19 cells EC50” value worked out at 0.05 µg/mL and the “Neutralization in MRC-5 cells EC50” value came out at 0.08 µg/mL. For the same molecule, the binding result with recombinant gB is reported as “no binding (tested: 1 µg/ml)”. For the same molecule, the EC50 in experiment [2] worked out at 1.72 µg/mL.

B3: 324.4 (antibody, V domains shown)
VH: QSVKESEGRLVTPGTPLTLTCTVSGFSPSSYNMGWVRQAPGEGLEWIGYISTSGNTFYASWAKGRFTISKTSTTVDLRITSPTTEDTATYFCARGSYVAYNAWDLWGPGTLVTISS
VL: ELDLTQTASPVSAAVGGTVTINCQSSQSVYNNNYLSWYQQKPGQPPKLLIYGASTLASGVPSRFKGSGSGTQFTLTISEVQCDDAATYYCQGYYSGYIYAFGGGTEVVVK
notes: rabbit hybridoma mAb; also called clone 324.4
B3: in experiment [1], the “Neutralization in ARPE-19 cells EC50” value stood at 0.1 µg/mL and the “Neutralization in MRC-5 cells EC50” value is 0.21 µg/mL. In the experiment with recombinant gB, the binding result is “no binding (tested: 1 µg/ml)”. In experiment [2], this molecule displayed an EC50 of 4.09 µg/mL.

B4: 58.5 (antibody, V domains shown)
VH: QSLEESGGRLVTPGGSLTLTCTVSGFSLSAYSVSWVRQAPGKGLEWIGIIGHSGNTYYASWAKGRFTISKTSTTVDLKITSLTTEDTATYFCAREDYRYGDYGYYWDFNFWGPGTLVTISS
VL: ELDLTQTASPVSAPVGGTVTINCQASQNIYSNLAWYQQKPGQPPKLLIYGASTLASGVSSRFKGSRSGTEFTLTISDLECADAATYYCQSYVYSSSTADTFGGGTEVVVK
notes: rabbit hybridoma mAb (not the humanized version); also called clone 58.5
Turning to B4, in experiment [1], the “Neutralization in ARPE-19 cells EC50” value is 0.02 µg/mL and the “Neutralization in MRC-5 cells EC50” value was determined as 100 µg/mL. In addition, the binding result with recombinant gB was “no binding (tested: 1 µg/ml)”. In experiment [2], the EC50 amounted to 0.59 µg/mL.

B5: 223.4 (antibody, V domains shown)
VH: QSLEESGGRLVTPGTPLTLTCTVSGFSLSAYSVSWVRQAPGKGLEWIGIIGHSGNTYYANWAKGRFTISKTSTTVDLKITSLTIEDTATYFCAREDYRYGDYGYYWDFNFWGPGTLVTISS
VL: ELVMTQTPSPVSAPVGGTVTISCQASRSVYNENYVAWFQHRPGQPPKLLIYTTSILASGVPSRFKGRGSGTQFTLTISDVQCDDAATYYCAGDYDDNEENAFGGGTELEIL
notes: rabbit hybridoma mAb; also called clone 223.4
In the case of B5, in experiment [1], the “Neutralization in ARPE-19 cells EC50” value was determined as 0.06 µg/mL and the “Neutralization in MRC-5 cells EC50” value was found to be 100 µg/mL. Besides, the binding result with recombinant gB was “no binding (tested: 1 µg/ml)”. The EC50 in experiment [2] stood at 1.54 µg/mL.

B6: 210.4 (antibody, V domains shown)
VH: QSVEESGGRLVTPGTPLTLTCTVSGFSLSTNAMSWVRQAPGKGLEWIGYIWSGGSTYYASWAKGRFAISKTSTTVDLKITSPTTEDTATYFCAKNGDNGQLDLWGQGTLVTVSS
VL: ELVLTQTPSPVSAAVGGTVTINCQTSQSLYNNNFLSWYQQKPGQPPKLLIYKASTLESGVPSRFKGSGSGTQFTLTISGVQCDDAATYYCQGEFSCSSADCNAFGGGTEVVVK
notes: rabbit hybridoma mAb; also called clone 210.4
Turning to B6, in experiment [1], the “Neutralization in ARPE-19 cells EC50” value came to 100 µg/mL and the “Neutralization in MRC-5 cells EC50” value was found to be 100 µg/mL. The molecule further registered an EC50 in experiment [2] of 0.03 µg/mL.

B7: 212.6 (antibody, V domains shown)
VH: QSLEESGGRLVTPGTPLTLTCTVSGFSLSSYAMSWVRQAPGKGLEWIGIIGSSGNTYYASWAKGRFTISKTSTTVDLKITSPTTEDTATYFCARGGYSYDDYTPFDLWGPGTLVTVSS
VL: ELVLTQSPSLSASLGTTARLTCTLSTGYSVGKYPLVWLQQVPGRPPRYLLTYHTEEFKHQGSGVHSRFSGSKDTSENAGVLSISGLQPEDEADYYCATAHATESSLHYVFGGGTQLTVT
notes: rabbit hybridoma mAb; also called clone 212.6
On to B7, for which, in experiment [1], the “Neutralization in ARPE-19 cells EC50” value was 3.71 µg/mL and the “Neutralization in MRC-5 cells EC50” value stood at 100 µg/mL. The molecule further displayed an EC50 in experiment [2] of 52.9 µg/mL.

B8: 347.3 (antibody, V domains shown)
VH: QSLEESEGRLVTPGTPLTLTCTVSGIDLSTYAMNWVRQAPGKGLEWIGIIGSSGGAYYASWAKGRCTISKTSTTVDLKITSPTTEDTATYFCAVSLYTYDDYADYFLWGPGTLVTISS
VL: ELVLTQSPSLSASLGTTARLTCTLSTGYSVGKYPLVWLQQVPGRPPRYLLTYHTEEFKHQGSGVHSRFSGSKDTSENSFVLRIFGLQPEDEADYYCVTAHPTESSLHYVFGGGTQLTVT
notes: rabbit hybridoma mAb; also called clone 347.3
Turning to B8, in experiment [1], the “Neutralization in ARPE-19 cells EC50” value stood at 0.03 µg/mL and the “Neutralization in MRC-5 cells EC50” value turned out to be 100 µg/mL. Further, the binding result with recombinant gB was “no binding (tested: 1 µg/ml)”. The midpoint of the response in experiment [2], the EC50, lay at 0.34 µg/mL.

B9: 57.4 (antibody, V domains shown)
VH: QSLEESGGGLVKPGGTLTLTCTASGFSFSSVYDMSWVRQAPGKGLEWIASIVTGSRTTWYASWAKGRFTVSKTSSTTVTLQMTSLTAADTATYFCARGEYGHDGYVDGTMGLGLWGPGTLVTISS
VL: ELDLTQTPASVEAAVGGTVAIKCQASQSIRRHLSWYQQKPGQRPKLLIYGASNLASGVSSRFKGSGSGTEFTLTISDLECADAATYYCQCTYGVGFSSTYGDAFGGGTELEIL
notes: rabbit hybridoma mAb (not the humanized version); also called clone 57.4; mAb 57.4
For B9, in experiment [1], the “Neutralization in ARPE-19 cells EC50” value was found to be 0.01 µg/mL and the “Neutralization in MRC-5 cells EC50” value is 100 µg/mL. Besides, the binding result in the experiment with recombinant gB is recorded as “no binding (tested: 1 µg/ml)”. The response in experiment [2] was half-maximal at 0.09 µg/mL (EC50).

B10: 276.10 (antibody, V domains shown)
VH: QSLEESGGDLVQPEGSLTLTCTASGFSFSGSYYMCWVRQAPGTGLEWIACIDGDLSGSAYYANWAKGRFTISGTSSTTVTLQVTSLTAADTATYFCAREGPVGVGSIYLGFDLWGPGTLVTISS
VL: ELDLTQTPASVEVPVGGTVTIKCQASHNINTYLSWYQQKPGQPPKLLIYRASDLASGVSSRFSGSGSGTQFTLTISGVECADAATYYCQQGFNSLNVENVFGGGTEVVVK
notes: rabbit hybridoma mAb (not the humanized version); also called clone 276.10
Regarding B10, in experiment [1], the “Neutralization in ARPE-19 cells EC50” value worked out at 0.01 µg/mL and the “Neutralization in MRC-5 cells EC50” value turned out to be 100 µg/mL. Moreover, the binding result with recombinant gB is given as “no binding (tested: 1 µg/ml)”. Moreover, the concentration giving a half-maximal response (EC50) in experiment [2] turned out to be 0.25 µg/mL.

B11: 70.7 (antibody, V domains shown)
VH: QSVEESRGRLVTPGTPLTLTCTASGFSLSSYHMIWVRQAPGKGLEWIGYINYNNNPYYATWAKGRFTISRTSTTVALKITSPTTEDSATYFCARAAGNYYVGALNLWGPGTLVTISS
VL: ERDMTQTPASVEVAVGGTVTIKCQASQSIGNLLAWYQQKPGQRPKLLIYDASTLASGVPSRFKGSGSGTEFTLTISGVQCADAATYYCQQGYMITNVENAFGGGTEVVVK
notes: rabbit hybridoma mAb; also called clone 70.7
For B11, in experiment [1], the “Neutralization in ARPE-19 cells EC50” value came to 0.03 µg/mL and the “Neutralization in MRC-5 cells EC50” value came out at 0.09 µg/mL. In the experiment with recombinant gB, the binding result is listed as “no binding (tested: 1 µg/ml)”. Also, the EC50 in experiment [2] stood at 1.46 µg/mL.

B12: 316.2 (antibody, V domains shown)
VH: QSVKESEGRLVTPGTPLTLTCTASGFSLSSYHMIWVRQAPGKGLEWIGYINNNDNPYYATWAKGRFTISRTSTTVALKITSPTTKDTATYFCARAAGNYYVGALNLWGPGTLVTISS
VL: ELVLTQTPASVEVAVGGTVTIKCQASQTIGNLLGWYQQKPGRPPKLLIYDASTLASGVPSRFKGSGSATEFTLTIRGVQCDDAATYYCQQGYMITNVENAFGGGTEVVVK
notes: rabbit hybridoma mAb; also called clone 316.2
As to B12, in experiment [1], the “Neutralization in ARPE-19 cells EC50” value came out at 0.02 µg/mL and the “Neutralization in MRC-5 cells EC50” value stood at 0.08 µg/mL. Also, the binding result in the experiment with recombinant gB is listed as “no binding (tested: 1 µg/ml)”. In experiment [2], this molecule registered an EC50 of 1.06 µg/mL.

B13: 270.7 (antibody, V domains shown)
VH: QSVEESGGRLVTPGTPLALTCTASRFSLSSNHMIWVRQAPGKGLEWIGYINYNNNPYYATWAKGRFTISRTSTTVALKITSPTTEDTATYFCARAAGNYYVGALNLWGPGTLVTISS
VL: ELVMTQTPASVEVAVGGTVTIKCQASQSIGNLLAWYQQEPGQRPKLLIYDASTLASGVPSRFKGSGSGTEFTLTISGVQCADAATYYCQQGYMITNVENAFGGGTNVEIK
notes: rabbit hybridoma mAb; also called clone 270.7
On to B13, for which, in experiment [1], the “Neutralization in ARPE-19 cells EC50” value came out at 0.02 µg/mL and the “Neutralization in MRC-5 cells EC50” value was determined as 0.06 µg/mL. For the same molecule, the binding result in the experiment with recombinant gB was “no binding (tested: 1 µg/ml)”. This molecule returned an EC50 in experiment [2] of 0.68 µg/mL.

B14: 350.1 (antibody, V domains shown)
VH: QSLEESGGDLVKPGASLTLTCTASGFSFSNSYYMCWVRQAPGKGLEWIVCIYAGSSGFTYYANWAKGRFTVSKTSSTTVTLQMTSLTAADTATYFCARDRGYYTYGYAGYGYGMDLWGPGTLVTISS
VL: ELDMTQTPSPVSTAVGGTVSISCQSGQNVWTNDYLSWYQQKPGQPPKLLIYRASTLASGVPSRFKGSGSGTQFTLTISDVQCDDAATYYCGGTFLSNGDNGFGGGTEVVVK
notes: rabbit hybridoma mAb; also called clone 350.1; mAb 350.1
Consider B14, for which, in experiment [1], the “Neutralization in ARPE-19 cells EC50” value is 100 µg/mL and the “Neutralization in MRC-5 cells EC50” value stood at 100 µg/mL. Further, the EC50 in experiment [2] stood at 0.02 µg/mL.

Values taken from patent US20160130327A1 (Merck Sharp & Dohme, published 2016).
